What was measured:
[1] = tested on: salivary gland epithelial cells; test: Cytotoxicity test against salivary gland epithelial cells (51Cr release); type: cell-based; conditions: CD4-positive T-cell effector cells treated with mouse IL-10 (0.1 mg/ml) with or without anti-FASL antibody (10 μg/ml); effector:target 20-fold; 4 hours at 37° C.; 51Cr in supernatant
Excerpt: Cytotoxicity test against salivary gland epithelial cells
Spleen isolated from a B6 mouse was chopped into small pieces, the cells were collected with a syringe having 22-gage injection needle and the collected cells were passed through a meshed screen to obtain cell suspension. CD4-positive T-cells were isolated from the cell suspension by means of dynabeads to provide effector cells.
Salivary gland of the same mouse as above was immersed in DMEM medium containing 10% fetal calf serum supplemented with collagenase (750 units/ml), EDTA (0.76 mg/ml) and hyaluronidase type IV (500 units/ml) to isolate the salivary gland tissue, and the obtained cells were incubated in DMEM medium containing 10% fetal calf serum for 10 to 14 days in a CO2 incubator. The cultured cells were then analyzed with flow-cytometry and were confirmed that 85-95% of them were epithelial cells, and were used as target cells.
The target cells were labeled with 51Cr. Half of the effector cells were treated with mouse IL-10 (0.1 mg/ml) alone, whereas the other half were treated with mice IL-10 (0.1 mg/ml) and anti mice Fas ligand (FASL) neutralizing antibody (10 μg/ml) . […]
The amount of 51Cr in the supernatant of the respective culture was measured and the cytotoxic ratio was calculated by subtracting the 51Cr amount of the target cells cultured without effector cells.

[2] = tested on: normal mouse spleen cells; test: Effect of IL-10 on the expression of Fas ligand (flow-cytometry); type: cell-based; conditions: treated in vitro, analyzed 48 hours after the treatment; versus non-stimulated cells
Description: In order to study the role of IL-10 in Fas-ligand expression, normal mouse spleen cells were isolated, treated with mouse recombinant IL-10 in vitro and then analyzed with flow-cytometry 48 hours after the treatment.

B1: IL-10: mouse interleukin-10 used to treat effector cells and spleen cells (protein, UniProt P18893 19-178, looked up)
Interleukin-10: SRGQYSREDNNCTHFPVGQSHMLLELRTAFSQVKTFFQTKDQLDNILLTDSLMQDFKGYLGCQALSEMIQFYLVEVMPQAEKHGPEIKEHLNSLGEKLKTLRMRLRRCHRFLPCENKSKAVEQVKSDFNKLQDQGVYKAMNEFDIFINCIEAYMMIKMKS
In the case of B1, the cytotoxic ratio [1] is reported as 29.5% and the Fas ligand expression [2] is reported as “Significantly higher amount of Fas ligand expression”.
